The results in this text go back to patent publication US20140087995A1 (published 2014).

The chains are these.
T1: human amylin 3(a) receptor (human calcitonin receptor plus RAMP-3) (human, UniProt P30988 25-474; O60896 24-148, limits assumed)
T1 sequence (looked up) 1: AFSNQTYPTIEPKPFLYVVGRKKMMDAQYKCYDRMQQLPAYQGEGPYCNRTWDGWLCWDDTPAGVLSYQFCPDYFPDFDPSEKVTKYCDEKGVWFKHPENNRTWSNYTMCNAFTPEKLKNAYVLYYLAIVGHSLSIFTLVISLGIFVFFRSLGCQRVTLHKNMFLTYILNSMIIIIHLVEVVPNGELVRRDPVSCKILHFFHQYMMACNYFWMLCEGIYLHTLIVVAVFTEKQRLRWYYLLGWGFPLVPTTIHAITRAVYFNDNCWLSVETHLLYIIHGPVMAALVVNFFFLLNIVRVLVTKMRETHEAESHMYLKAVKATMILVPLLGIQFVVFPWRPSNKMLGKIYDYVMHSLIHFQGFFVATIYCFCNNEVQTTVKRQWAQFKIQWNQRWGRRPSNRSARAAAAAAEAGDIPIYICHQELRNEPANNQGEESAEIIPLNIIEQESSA
T1 sequence (looked up) 2: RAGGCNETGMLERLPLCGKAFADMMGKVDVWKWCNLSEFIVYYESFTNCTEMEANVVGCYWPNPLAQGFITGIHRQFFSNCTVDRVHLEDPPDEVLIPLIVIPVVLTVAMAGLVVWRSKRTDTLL

T2: human calcitonin receptor (human, UniProt P30988 25-474)
T2 sequence (looked up): T1 sequence (looked up) 1

B1: N^ε1-[(4S)-4-carboxy-4-(19-carboxynonadecanoylamino)butanoyl]-[Glu14,Arg17,Pro21,Pro27,Arg35]-h-amylin (peptide)
peptide: K([γGlu-C20 diacid])CNTATCATQRLAEFLRHSSPNFGAIPSSTNVGSRTY-NH2
modifications: disulfide 2-7; N-terminus assumed
SMILES: CC[C@H](C)[C@H](NC(=O)[C@H](C)NC(=O)CNC(=O)[C@H](Cc1ccccc1)NC(=O)[C@H](CC(N)=O)NC(=O)[C@@H]1CCCN1C(=O)[C@H](CO)NC(=O)[C@H](CO)NC(=O)[C@H](Cc1c[nH]cn1)NC(=O)[C@H](CCCNC(=N)N)NC(=O)[C@H](CC(C)C)NC(=O)[C@H](Cc1ccccc1)NC(=O)[C@H](CCC(=O)O)NC(=O)[C@H](C)NC(=O)[C@H](CC(C)C)NC(=O)[C@H](CCCNC(=N)N)NC(=O)[C@H](CCC(N)=O)NC(=O)[C@@H](NC(=O)[C@H](C)NC(=O)[C@@H]1CSSC[C@H](NC(=O)[C@@H](N)CCCCNC(=O)CC[C@H](NC(=O)CCCCCCCCCCCCCCCCCCC(=O)O)C(=O)O)C(=O)N[C@@H](CC(N)=O)C(=O)N[C@@H]([C@@H](C)O)C(=O)N[C@@H](C)C(=O)N[C@@H]([C@@H](C)O)C(=O)N1)[C@@H](C)O)C(=O)N1CCC[C@H]1C(=O)N[C@@H](CO)C(=O)N[C@@H](CO)C(=O)N[C@H](C(=O)N[C@@H](CC(N)=O)C(=O)N[C@H](C(=O)NCC(=O)N[C@@H](CO)C(=O)N[C@@H](CCCNC(=N)N)C(=O)N[C@H](C(=O)N[C@@H](Cc1ccc(O)cc1)C(N)=O)[C@@H](C)O)C(C)C)[C@@H](C)O
notes: also called compound 51
B2: N^ε1-[(4S)-4-carboxy-4-(19-carboxynonadecanoylamino)butanoyl]-[Glu14,Arg17,Pro21,Pro27,His34,Glu35]-h-amylin (peptide)
peptide: K([γGlu-C20 diacid])CNTATCATQRLAEFLRHSSPNFGAIPSSTNVGHETY-NH2
modifications: disulfide 2-7; N-terminus assumed
SMILES: CC[C@H](C)[C@H](NC(=O)[C@H](C)NC(=O)CNC(=O)[C@H](Cc1ccccc1)NC(=O)[C@H](CC(N)=O)NC(=O)[C@@H]1CCCN1C(=O)[C@H](CO)NC(=O)[C@H](CO)NC(=O)[C@H](Cc1c[nH]cn1)NC(=O)[C@H](CCCNC(=N)N)NC(=O)[C@H](CC(C)C)NC(=O)[C@H](Cc1ccccc1)NC(=O)[C@H](CCC(=O)O)NC(=O)[C@H](C)NC(=O)[C@H](CC(C)C)NC(=O)[C@H](CCCNC(=N)N)NC(=O)[C@H](CCC(N)=O)NC(=O)[C@@H](NC(=O)[C@H](C)NC(=O)[C@@H]1CSSC[C@H](NC(=O)[C@@H](N)CCCCNC(=O)CC[C@H](NC(=O)CCCCCCCCCCCCCCCCCCC(=O)O)C(=O)O)C(=O)N[C@@H](CC(N)=O)C(=O)N[C@@H]([C@@H](C)O)C(=O)N[C@@H](C)C(=O)N[C@@H]([C@@H](C)O)C(=O)N1)[C@@H](C)O)C(=O)N1CCC[C@H]1C(=O)N[C@@H](CO)C(=O)N[C@@H](CO)C(=O)N[C@H](C(=O)N[C@@H](CC(N)=O)C(=O)N[C@H](C(=O)NCC(=O)N[C@@H](Cc1c[nH]cn1)C(=O)N[C@@H](CCC(=O)O)C(=O)N[C@H](C(=O)N[C@@H](Cc1ccc(O)cc1)C(N)=O)[C@@H](C)O)C(C)C)[C@@H](C)O
notes: also called compound 107
B3: N^ε1-[(4S)-4-carboxy-4-(19-carboxynonadecanoylamino)butanoyl]-[Glu14,Arg17,Pro21,Pro27,Pro34,Glu35]-h-amylin (peptide)
peptide: K([γGlu-C20 diacid])CNTATCATQRLAEFLRHSSPNFGAIPSSTNVGPETY-NH2
modifications: disulfide 2-7; N-terminus assumed
SMILES: CC[C@H](C)[C@H](NC(=O)[C@H](C)NC(=O)CNC(=O)[C@H](Cc1ccccc1)NC(=O)[C@H](CC(N)=O)NC(=O)[C@@H]1CCCN1C(=O)[C@H](CO)NC(=O)[C@H](CO)NC(=O)[C@H](Cc1c[nH]cn1)NC(=O)[C@H](CCCNC(=N)N)NC(=O)[C@H](CC(C)C)NC(=O)[C@H](Cc1ccccc1)NC(=O)[C@H](CCC(=O)O)NC(=O)[C@H](C)NC(=O)[C@H](CC(C)C)NC(=O)[C@H](CCCNC(=N)N)NC(=O)[C@H](CCC(N)=O)NC(=O)[C@@H](NC(=O)[C@H](C)NC(=O)[C@@H]1CSSC[C@H](NC(=O)[C@@H](N)CCCCNC(=O)CC[C@H](NC(=O)CCCCCCCCCCCCCCCCCCC(=O)O)C(=O)O)C(=O)N[C@@H](CC(N)=O)C(=O)N[C@@H]([C@@H](C)O)C(=O)N[C@@H](C)C(=O)N[C@@H]([C@@H](C)O)C(=O)N1)[C@@H](C)O)C(=O)N1CCC[C@H]1C(=O)N[C@@H](CO)C(=O)N[C@@H](CO)C(=O)N[C@H](C(=O)N[C@@H](CC(N)=O)C(=O)N[C@H](C(=O)NCC(=O)N1CCC[C@H]1C(=O)N[C@@H](CCC(=O)O)C(=O)N[C@H](C(=O)N[C@@H](Cc1ccc(O)cc1)C(N)=O)[C@@H](C)O)C(C)C)[C@@H](C)O
B4: N^ε1-[(4S)-4-carboxy-4-(19-carboxynonadecanoylamino)butanoyl]-[Glu14,Arg17,Pro21,Pro27,Pro34,Arg35]-h-amylin (peptide)
peptide: K([γGlu-C20 diacid])CNTATCATQRLAEFLRHSSPNFGAIPSSTNVGPRTY-NH2
modifications: disulfide 2-7; N-terminus assumed
SMILES: CC[C@H](C)[C@H](NC(=O)[C@H](C)NC(=O)CNC(=O)[C@H](Cc1ccccc1)NC(=O)[C@H](CC(N)=O)NC(=O)[C@@H]1CCCN1C(=O)[C@H](CO)NC(=O)[C@H](CO)NC(=O)[C@H](Cc1c[nH]cn1)NC(=O)[C@H](CCCNC(=N)N)NC(=O)[C@H](CC(C)C)NC(=O)[C@H](Cc1ccccc1)NC(=O)[C@H](CCC(=O)O)NC(=O)[C@H](C)NC(=O)[C@H](CC(C)C)NC(=O)[C@H](CCCNC(=N)N)NC(=O)[C@H](CCC(N)=O)NC(=O)[C@@H](NC(=O)[C@H](C)NC(=O)[C@@H]1CSSC[C@H](NC(=O)[C@@H](N)CCCCNC(=O)CC[C@H](NC(=O)CCCCCCCCCCCCCCCCCCC(=O)O)C(=O)O)C(=O)N[C@@H](CC(N)=O)C(=O)N[C@@H]([C@@H](C)O)C(=O)N[C@@H](C)C(=O)N[C@@H]([C@@H](C)O)C(=O)N1)[C@@H](C)O)C(=O)N1CCC[C@H]1C(=O)N[C@@H](CO)C(=O)N[C@@H](CO)C(=O)N[C@H](C(=O)N[C@@H](CC(N)=O)C(=O)N[C@H](C(=O)NCC(=O)N1CCC[C@H]1C(=O)N[C@@H](CCCNC(=N)N)C(=O)N[C@H](C(=O)N[C@@H](Cc1ccc(O)cc1)C(N)=O)[C@@H](C)O)C(C)C)[C@@H](C)O

Numbered stars: 1 amine (or outer) side, 2 acyl side, 3 side chain; on linkers, the order of the positions; unused ones are H or OH. Bridge positions count the residues as written; N and C are the ends. Side chains are listed from the residue outwards. Ends that are not written are not given here. * marks the point of attachment. C20 diacid = O=C(O)CCCCCCCCCCCCCCCCCCC(=O)*; γGlu = O=C(O)[C@H](CCC(=O)[*:2])N[*:1]

One test deals with T1, human amylin 3(a) receptor (human …). The test can be described thus: cell-based or functional assay.
For B1, the “Ratio hCT/hAmylin funct.” value was 14 and the “hAmylin-R funct. EC50” value stood at 0.372 nM.
As to K([γGlu-C20 diacid])CNTATCATQRLAEFLRHSSPNFGAIPSSTNVGPHTY-NH2 (disulfide 2-7), the “hAmylin-R funct. EC50” value came out at 0.101 nM.
Turning to B2, the “Ratio hCT/hAmylin funct.” value came to 6.3 and the “hAmylin-R funct. EC50” value turned out to be 0.405 nM.
On the same counts, the results for B3 are 5.2 and 0.161 nM.
With B4, the “hAmylin-R funct. EC50” value is 0.376 nM.

Another test has as its target T2, human calcitonin receptor. The test can be described thus: cell-based or functional assay.
With B1, the “hCTR funct. EC50” value stood at 5.22 nM.
Take K([γGlu-C20 diacid])CNTATCATQRLAEFLRHSSPNFGAIPSSTNVGPHTY-NH2 (disulfide 2-7): the “hCTR funct. EC50” value came out at 1.45 nM.
Still for that read-out and setting: in the case of B2 it was 2.54 nM; in that of B3, 0.841 nM; in that of B4, 6.38 nM.

A further test addresses T1, human amylin 3(a) receptor (human …). The test can be described thus: SPA competition binding, displacement of 125I-rat amylin from membranes of Amylin 3(a)/CRE-luc BHK cells (Assay V). A digest of the protocol: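 Cell membranes were prepared by homogenisation in Na-HEPES/EDTA buffer, pH 7.4, and stored at −80° C. They were then coupled to SPA beads at 35 ng/μL final and exposed to compounds in assay buffer containing CaCl2, MgCl₂, OA and Tween20. After 120 min at 25° C, plates were counted and IC₅₀ derived.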
Regarding B1, the IC50 is 0.828 nM.
On to K([γGlu-C20 diacid])CNTATCATQRLAEFLRHSSPNFGAIPSSTNVGPHTY-NH2 (disulfide 2-7), for which the IC50 turned out to be 0.179 nM.
Still for that read-out and setting: in the case of B2 it was 0.387 nM.
On to B3, for which the IC50 amounted to 0.14 nM.
Same read-out and setting: in the case of B4 it was 0.163 nM.
